# Results taken from US20170121390A1.
# Target: HCV E1-E2 protein complex of hepatitis C virus isolate H77 (genotype 1a), expressed from plasmid pcDNA3.1-E1E2 (hepatitis C virus isolate H77 (genotype 1a)) (UniProt P27958)
# Test: cell-based or functional assay
substance,measurement,value
fully human monoclonal antibody Adalimumab (brand name Humira),Degree of inhibition (times),1.09 times
same,Infection effectiveness (percentage of fluorescent cells),58.1%
